Experimental data: the domain aggregation screens of Martell et al. (2025)

Experiment: soluble fraction after stress (log2 fold change); higher = more stays soluble; pooled small domains, quantitative proteomics
Settings: stress: pH 4
Method in brief: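 Values are on a log2 scale, where higher means more of the domain stayed soluble after pH 4 stress. They are fold changes in the soluble amount of each domain from pooled custom libraries, measured by high-throughput quantitative proteomics. The fold change is taken to reflect aggregation propensity.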

Row | Sequence | soluble fraction (log2)
1 | HMDRGDVTREALIKAAIEIFGRDGFHAASTRAIAERAGANQALIGYHFRGKLGLYHATFEYIIGKI | -0.474
2 | HMGKSKAAQSSLVRSIMHQISDKNRGPMPLSEIIDRASIQSIDEAIVRSLVSRMKEQGEIYEPSLGTYEF | -0.163
3 | HMERAPAYPDGLTQREVEVLRLIASGKTDREIAEELFIGVRTVSTHVGNILNKTNSANRTEAASYANQQGL | -1.53
4 | HMKLSALRDKIKEHLLRQIQNGELQVGKTINLAALSRVTGISVTPIREALTQLEQAQVIQAVPNRGFVVA | 0.184
5 | HMGPASTGAHQLGLKPGDEVTHRAWGEGVVTSTTGEGDRAEAVVDFDAVGEKRLLLAWAPLER | -0.705
6 | HMKPSKTDEAEYWLMERLEEGPQPAGDLIRIGEEFGYTPKILRDAGERFNMERYKDGLDHWMWKLPN | 0.349
7 | HMPSALGDKIRAARKALKLSLEDLAEKVSSSKSYMWELENRDEPNPGADLLMRIAAALNVTTEHLLGP | -0.0842
8 | HMKYLREEDYLPIGSIIRLDDRNFRVDHVNFMFKSVSLQDMDLTNSGQPIFRSESLPHIRELYEQQQNELV | -1.09
9 | HMDDLFGNAIEMFNNQRYDMTYELLVQLLSETPNNEKAWQLLADTKFMLGDYDDALHIVGKAAK | -1.36
10 | HMQQLIEFSVTKGHPWINKKIMDLNLPENQLILTIQREGHVVSAEGKTIILENDRITISTDDR | -1.43
11 | HMATYNEVLKRLIEERKRLGLSQQEMARLVHITQSNYSKVEKGLHRLSYEELKYLSKANVDIFYILT | 0.0845
12 | HMGQVGIPFSDFLAEVENGQVREVVIKGNDISGTFNDNRGFSTYAPNDPNLVEKLTKRGVVINAQPTE | 0.123
13 | HMPLNRFLNLPHEDKERVLLIAKKQFSTHGYDAMSLNLLLKELDISKGQFYYWFEDKADLFFTVL | 0.0543
14 | HMTERIRLHDDIGSWVEKHGATRSALIPVLQGIQRSYNEISEYAMQEVADRLDIHPVEVYSVVSFYSF | 0.103
15 | HMADLPQATALADVKGDVQMQGIQFGYDPEKIIIHDLNLHARPGSLVAIVGPTGAGKTTIINLLMRFYD | 0.124
16 | HMGPRVSAGPGRHRVQPGDTLDDIAARYRVSSRDLMLVNGLRNANHVEAGQTLKLPSNAVIA | ≥ 0.43
17 | HMIHMNMGQKINQLRLQKGFTLEELGNLVGVGKSTVRKWENGMIANMKRDKILLVAEALDTSPAYLMGWD | -0.462
18 | HMNIDVAAEKQQLGPNADQIVKGTVTWMQGLVAKGIWSETDFEEGKIFTATADGINAINKIRRYYGEQT | -0.439
19 | HMLGWEDVIQFEEVKGYGQHIWRDGNHLYYVTEEGGIAPQRVVYELPNELFALLESGERTQLEILSKLQ | -2.35
20 | HMYAGTWTTESGQWKYRQDDGTYAKGWLQDTDGRWYYFDANGRMLSNTATPDGYQVGEDGAWVNH | -0.651
21 | HMRDLAEAETILDALPTRLRKIVRWRHLEGLSQTEIAARLEISQMHVSRLYRRAISMIHASLADD | -0.843
22 | HMNIKYDFPTNSPLEMMRNLFDSNSQIINDLKDGFAMANSLNEQGLANFFAERIDKHQFWSWQLSASL | 0.177
23 | HMDPPQEVWDLTRSYLDSMNRPVHGHKSPQETYLRQVKSHRLPATALWDYFMAQRFHAVHATSESAA | -0.364
24 | HMPVPSPAEQTATQLANIERHTGITVDGWTRAIAEAGAAKHGEIVAWLKQQGLTHGNANALAHAVRARQSG | 0.173
25 | HMQRIFIDNHDRILYYSNPAGYIAGKEAVVDTMFQTQELERFLQKQSLSIRWEDGVYDRLLLGQ | -0.725
26 | HMRARTLSTTGGESLLTLAESLYPDDDRARARFIEATAAANPKLFADIAALTRVLPAGTTLRMPDLRA | 0.129
27 | HMSRDYKTELQERLQVNGPVKIEYQVIAEDESKPSFKVQLLVNDKKISEGQGRNKKAAEQQAAQAAL | 0.0788
28 | HMREPQMVTVNGDKVTHGHAYRSNVNPEDWYFTARINGQQLKPQKMEPADVAAYDKKEIGVPELMQR | -0.0539

Row | Sequence | soluble fraction (log2)
29 | HMGPVRRDLEINGRMVPLTIREHARATRITLRIEPGGQALRLTIPPGLPTREVDSFLTRHHGWLMTKLAHI | 0.0131
30 | HMGALARLLASVEQELGVTRDRMTRTQKQEAVTLLNEWGAFTLRKSVEDVAEALGVSRFTVYNYLERAEA | -0.866
31 | HMEEINTAPVFKNIIEIAEYAKTKFTTVEEIPKMIEFIETANSKLDNPHDEESVNELINALSTNIRKNV | -0.554
32 | HMQIKEVDYGTFISMTEDGEIGRVEIQQQENTILFTDEDETAVYKTAMVEDDQLTQRLYDAGISFYGEE | -0.784
33 | HMAMMTKQRLIQLIHIARNDLQMDEDTYRQMLQGLTGKASTKGMDTPQLNRVLESMKKKGFRIK | ≥ 0.43
34 | HMDGSEYAGTVRLGDGTLQPVPRFETSNSETPKYLYLVMDVTHDPPVYILEHESAELKSVLGGLVLIGSYS | -0.0612
35 | HMGFSKGKRDLIRMIKLAIRELADDNGRAQIEDVITRLVQEGHSRDEIRLQIDMFLRQGEAMEPKQGIIKL | -0.891
36 | HMDFFVLVGAYKTPDEAETIRAKIAFSGLDSSVSHGNDGRYRVRIGPFHSEGDARKAQSTLRANDIPGQII | 0.18
37 | HMRKATEVPFTAFKDSIENSHGKLSKAGLARHLADEYGMSQRNMERRINNLIDNKTIKYGNEGGLVWIG | 0.22
38 | HMETEAGIKAYLSSSMIKGIGPVTAQRIVERFGKRTLYVLDQMPEKLLDISGISEAKLEEILNGYRKS | -0.532
39 | HMSGKMTVPNVVGKTETEAKSALSAKGFTNVRTETVDSTEAAGTVVKQSLDADSVQDPKTEIVLSVSNG | ≥ 0.43
40 | HMTIAFPSNDVDAVVGYFESRGFDRTASISTATVILQQAKIDGVKVFELIDTLQGMDKVQLSYIVTEILN | -0.0582
41 | HMETGELQQILEDVFSKNIGIVQDKREAAFSILMGMIMAKSRGRADGALVSTLLKKKLTEFLATSDQVR | -0.196
42 | HMSIESMVGRFGVVTKDVVANEMAGKVKVGREEFRATADIAVSSGTKVKVTHAEGITLTVVPE | 0.0258
43 | HMKNNLKGSPIIIAGGYGVGSKENFNLLFDLAKVLNAEVGASRAAVDAGFVEHDRQIGQTGVTVRP | -0.0469
44 | HMEAEQLEAIRSALQQLSDMNRTVFNLHVVDGYKHEEIAAMLNITTGTSKAHLHRAKKRLRELID | -0.745
45 | HMKRFSPPSIEEVDSYIREKGYTVDAERFVNFYESKGWYVGKNKMKNWRAAVATWQKEDNKRN | -0.0455
46 | HMDKVEQLMQNPVIQEKMSEGDRELLRNASLVVLGRLEDDGSIIQRFVELFGEEAYERLKSELM | -0.865
47 | HMIGRRLKVARASAGLSLRELAARMDGVVTPQAIGKYERNEDMPGSRALMALASALGVSEGYLLSD | -0.0156
48 | HMFTLDDLQATYDIFERAEQNSDAMLAFQKVITAEGLDFDLTSPQGIVDFFKGAAPTEIYDLYEAS | -0.956
49 | HMGNLVDGINKKLTHVRDSLPEGYTLDEFKSAFQQQYPAAYDAYEGDKGKQFDKWLGNVIQSLPKK | 0.137
50 | HMNAIYKFVLGMIGKRSGVVTTLPSKKQVEFQANMLAEKFMQNGIDPNALKSPEQVKNVLANIDQ | 0.01
51 | HMRRRTLRQGATGSDVHAVQRLLNVDGAGLRTDGIFGPATERAVIAYQRKHGLAVDGVVGRETWTALLG | -0.0548
52 | HMSANVSMEEALRRTSQAHSLAGKWMRRVLQMAQGRDLIEQMQREAQEAHLPELIGMSVQLEFIRRG | -0.363
53 | HMGTRTILGIDPGSRKTGFGIIRLDGSRTHYVSSGVIRIPDTALPERLKIIFASLNEIIQQFQPQEV | 0.107
54 | HMVNSIQIHKKLRLDKRAGSDNWYARLTLPNGKRLVKTTKTEDIETAKEVALRLYYEVDARIQNKLPAT | -0.158
55 | HMGQARQSAIRELGNDPTSGKKITVRSGRYGPYVTDGEVNASLRKGDDPQTIDLDRAIELLAARREKLG | -0.324
